Results published in IntAct's records for PubMed 9082982.

Molecular target: sap18_drome Bin1 (UniProt Q9VEX9)
Sequence (Q9VEX9 whole entry): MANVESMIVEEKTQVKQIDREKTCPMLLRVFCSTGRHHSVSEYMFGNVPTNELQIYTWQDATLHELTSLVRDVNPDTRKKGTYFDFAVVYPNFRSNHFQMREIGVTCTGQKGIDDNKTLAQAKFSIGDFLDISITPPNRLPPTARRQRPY

Cell division control protein 42 homolog (Homo sapiens), P60953 D118A, sequence (P60953 whole entry D118A): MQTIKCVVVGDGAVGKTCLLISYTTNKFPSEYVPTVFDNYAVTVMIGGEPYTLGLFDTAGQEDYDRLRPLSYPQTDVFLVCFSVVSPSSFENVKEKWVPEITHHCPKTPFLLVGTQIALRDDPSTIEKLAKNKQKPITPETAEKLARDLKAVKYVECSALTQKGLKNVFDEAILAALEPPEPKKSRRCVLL
Cell division control protein 42 homolog (Homo sapiens), P60953 G12V, sequence (P60953 whole entry G12V): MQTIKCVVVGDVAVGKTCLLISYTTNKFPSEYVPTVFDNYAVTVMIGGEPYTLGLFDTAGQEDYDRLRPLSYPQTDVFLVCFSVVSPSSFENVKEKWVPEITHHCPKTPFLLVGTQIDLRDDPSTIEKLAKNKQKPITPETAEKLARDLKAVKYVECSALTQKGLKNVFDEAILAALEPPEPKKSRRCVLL

| effect of a mutation on the interaction | Substance |
| --- | --- |
| disrupting interaction | Cell division control protein 42 homolog (Homo sapiens), P60953 D118A |
| increasing interaction | Cell division control protein 42 homolog (Homo sapiens), P60953 G12V |
